Data taken from patent publication US20080132445A1, “Method for Inducing Mammary Epithelial Cell Differentiation” (Garvan Institute of Medical Reserach, priority 2002, published 2008).

Experiments:
[1] = test system: galanin expression (galanin promoter estrogen response element); conditions: Howard et al 1997; Kaplan et al 1988; cited from earlier work
GalR1 = conditions: stated as known; cited from earlier work
[2] = test system: Gal−/− mice mammary gland; test: Prl treatment of Gal−/− mice throughout pregnancy (mini-osmotic pump); format: in vivo, mouse
Protocol: (§1) Mammary whole mounts were made by spreading the gland on a glass slide and fixing in 10% formalin solution. Glands were defatted in acetone before carmine alum (0.2% carmine, 0.5% aluminium sulfate) staining overnight. The whole mount was dehydrated using a graded ethanol series followed by xylene treatment for 60 min and storage and photography in methyl salicylate. Morphometric analysis was performed by counting the number of side branches, alveolar buds or lobuloalveoli per mammary gland (n=5) for mammary gland cultures or from 4 representative fields of view from whole 4th inguinal glands.
On the morning of the observation of a vaginal plug, 6-8 week old mice were implanted with a 0.25 μl per hour, 28 day mini-osmotic pump (Alzet) containing unmodified Prl prepared as described (23). Either 0.6 or 1.2 μg were delivered per 24 hr. On the first day post-partum maternal behaviour of mothers was observed, pups were examined for the presence of milk and glands were taken for histological analysis.
(§2) Quantitative PCR was performed using LightCycler technology (Roche). Primers were designed on the basis of mismatch to other genes for WDMN1, β-Actin, WAP, β-casein, […], Elf5, Glycam1, IGF1, GHR, SPOT 14 and PRLR. PCR reactions were performed in 10 μL volume with 1 μL of cDNA, 5 pmoles of each primer and FastStart DNA Master SYBR Green I enzyme mix (Roche) as per manufacturers instructions. Relative quantitation of the product was performed by comparing the crossing points of different samples normalised to an internal control (β-Actin). Each cycle in the linear phase of the reaction corresponds to a two fold difference in transcript levels between samples. Each reaction was performed in triplicate using pooled RNA from the 4-6 mammary glands or the treatment groups utilised for transcript profiling.

[3] = test system: mammary glands (lobuloalveolar development); test: Mammary gland whole organ culture, morphology and histology; format: cell-based, BALB/c mice
Protocol: as §1
Four week old BALB/c mice were implanted with estrogen, progesterone and cholesterol pellets (Ginsburg and Vonderhaar, 2000). Following nine days of treatment, the whole fourth glands were removed and stretched onto siliconized lens paper and placed into petri dishes containing 2 mL of Waymouths 152/1 medium supplemented with penicillin (100 U/ml), streptomycin (100 μg/ml), gentamycin sulfate (50 μg/ml), 20 mM HEPES, insulin (5 μg/ml), hydrocortisone (100 ng/ml) and aldosterone (100 ng/ml) (basal medium, IAH) to monitor ductal side branching, with and without 100 nM rat galanin (Auspep). […] Medium was changed after 24 hr, then every second day for 6 days before morphology and histology were assessed.

STAT5 = test: Western analysis of cultured mammary glands: JAK/STAT pathway; format: cell-based, mice; conditions: western blot
Protocol: (§3) Four week old BALB/c mice were implanted with estrogen, progesterone and cholesterol pellets (Ginsburg and Vonderhaar, 2000). Following nine days of treatment, the whole fourth glands were removed and stretched onto siliconized lens paper and placed into petri dishes containing 2 mL of Waymouths 152/1 medium supplemented with penicillin (100 U/ml), streptomycin (100 μg/ml), gentamycin sulfate (50 μg/ml), 20 mM HEPES, insulin (5 μg/ml), hydrocortisone (100 ng/ml) and aldosterone (100 ng/ml) (basal medium, IAH) to monitor ductal side branching, with and without 100 nM rat galanin (Auspep). To assess lobuloalveolar development ovine PRL (Sigma, 1 μg/ml) was added to the basal medium with or without galanin. Glands were maintained in a tri-gas incubator at 50% O2 and 5% CO2 in air. Medium was changed after 24 hr, then every second day for 6 days before morphology and histology were assessed.
(§4) Following RNA extraction from mammary glands using TRIZOL Reagent (Gibco BRL), protein was extracted following the manufacturer's instructions. […] Specific binding was detected using Horseradish peroxidase conjugated secondary antibodies (Amersham Biosciences) with Chemiluminescence Reagent (PerkinElmer) and Biomax Light Film (Eastman Kodak Company).

ERK1/2 = test: Western analysis of cultured mammary glands: MAP kinase pathway; format: cell-based, mice; conditions: western blot
Protocol: as §3, §4

Akt = test: Western analysis of cultured mammary glands: PI3 kinase pathway; format: cell-based, mice; conditions: western blot
Protocol: as §3
Following RNA extraction from mammary glands using TRIZOL Reagent (Gibco BRL), protein was extracted following the manufacturer's instructions. Protein was separated using SDS-PAGE (Bio-Rad Laboratories), transferred to PVDF (Millipore) and blocked overnight with 5% skim milk powder, 2% fetal bovine serum, 50 mM sodium phosphate, 50 mM NaCl and 0.1% Tween 20. Membranes were incubated with one of the following primary antibodies: α-milk protein (Accurate Chemical & Scientific Corporation), α-STAT5a (Upstate Biotech), α-phospho-STAT5, α-phospho-Erk1/2, α-Erk2, α-phospho-Akt (S473), α-phospho-Akt (T308), α-Akt (Cell Signaling Technology) or α-β-Actin (Sigma). 20 μg of protein was loaded per lane except for α-milk protein were 400 ng of protein was loaded. Specific binding was detected using Horseradish peroxidase conjugated secondary antibodies (Amersham Biosciences) with Chemiluminescence Reagent (PerkinElmer) and Biomax Light Film (Eastman Kodak Company).

[4] = test system: milk proteins (WAP, α-casein, β-casein); test: Western analysis of cultured mammary glands: milk protein expression; format: cell-based, mice; conditions: western blot
Protocol: as §3, §4

[5] = test system: mammary gland gene expression; test: Transcript profiling of cultured mammary glands (Affymetrix MGU74Av2 GeneChips); format: cell-based, mice
Protocol: as §3
Total RNA was extracted using TRIZOL Reagent (Gibco BRL), purified using RNeasy Mini Kit (QIAGEN), cDNA synthesis performed using Superscript II (Invitrogen Life Technologies), synthesis of Biotin-labeled cRNA performed using BioArray HighYield RNA Transcript labeling Kit (Enzo Diagnostics) and hybridised to Affymetrix MGU74v2 GeneChips overnight as per manufacturers instructions. Arrays were performed in duplicate using 4-6 glands per treatment group from two separate replicate experiments. Analysis was performed using the Affymetrix GeneChip v5 software (MAS 5), with treatment groups compared back to IAH treatment as the baseline comparison. Principal Components Analysis was performed using JMP (SAS Institute). Venn diagrams where formed by selecting genes called increasing or decreasing by MAS 5 with a fold change greater then 1.7 compared to IAH. These groups were further restricted by excluding genes with a magnitude fold change >1.2 induced by the other treatments.
as §2

## estrogen
[1]
  increase of galanin expression: about 4000 fold

## GALP (1-60): 60 amino acid neuropeptide, galanin-like peptide, binds GalR1 and GalR2 (APAHRGRGGWTLNSAGYLLGPVLHLPQMGDQDGKRETALEILDLWKAIDGLPYSHPPQPS; Galanin-like peptide; UniProt Q9UBC7 25-84, looked up)
GalR1
  affinity for GalR1: poor affinity

B1: PRL: prolactin; ovine PRL (Sigma, 1 μg/ml) in culture, unmodified Prl by mini-osmotic pump in mice (protein, UniProt P01240 31-229, looked up)
Prolactin: TPVCPNGPGNCQVSLRDLFDRAVMVSHYIHNLSSEMFNEFDKRYAQGKGFITMALNSCHTSSLPTPEDKEQAQQTHHEVLMSLILGLLRSWNDPLYHLVTEVRGMKGVPDAILSRAIEIEEENKRLLEGMEMIFGQVIPGAKETEPYPVWSGLPSLQTKDEDARHSAFYNLLHCLRRDSSKIDTYLKLLNCRIIYNNNC
[2]; 0.6 or 1.2 μg PRL per 24 hours by mini osmotic pump throughout pregnancy
  lactation and pup survival: restored lactation and allowed pup survival
[2]; PRL throughout pregnancy, 1st day post-partum
  lobuloalveolar density (mammary gland whole mounts): partial rescue
[2]; PRL throughout pregnancy, quantitative RT-PCR
  Keratin18 levels: unchanged
[2]; PRL throughout pregnancy, quantitative RT-PCR, 1st day post-partum
  milk protein gene expression (WDMN1, β-casein, WAP), lobuloalveolar differentiation: did not even partially rescue
[3]; IAH medium, PRL 1 μg/ml with or without 100 nM galanin
  number of lobuloalveoli per gland: 8.6±2.1
[3]; added to IAH medium, 100 nM galanin or ovine PRL 1 μg/ml, 6 days culture
  ductal or lobuloalveolar development by quantitative morphology and histology: lobuloalveolar development was observed
STAT5
  phosphorylated STAT5 / activation of the JAK/STAT pathway: dramatic increase
  total STAT5a: increase
ERK1/2
  phosphorylated ERK / sustained activation of the MAP kinase pathway: dramatically increased
  total ERK1/2: decreased
Akt
  mobility of Akt: decreased mobility
  phosphorylation of T308 and S473 residues of Akt: did not increase
  total Akt: no increase
[4]
  milk protein synthesis (WAP, α and β casein): synthesised
[5]; cultured mammary glands
  PDGFRA expression: prevents galanin from reducing
  regulation of galanin or its receptors: did not regulate
[5]; fold change 1.7 versus IAH
  genes regulated that are not regulated by the other hormone (unique transcriptional influence): 160 genes
[5]; fold change 1.7 versus IAH, 40% of all regulated genes
  genes that changed expression in response to all three treatments: 136 genes
[5]; fold change greater than 1.7 versus IAH
  genes regulated regardless of the presence of the other hormone: 154 genes
[5]; prolactin against galanin's unique genes, galanin against 160 prolactin regulated genes
  genes regulated by the other hormone whose regulation is antagonised: 30/31
